# Experimental data taken from patent US20250049970A1, “DLL3 TARGETING PEPTIDES AND CONSTRUCTS THEREOF” (MARIANA ONCOLOGY INC., priority 2023, published 2025).
# *1 amine or outer side, *2 acyl side, *3 side chain or, on linkers, in order; H or OH if unused. Where a SMILES comes first, the peptide text is derived from it. Bridges are numbered along the chain shown (N, C = ends). [ ]: non-standard residue; d: D form. The star is where a group is joined. Ala(piperidin-4-yl) = O=C([C@H](CC1CCN([*:3])CC1)N[*:1])[*:2]; DOTA = O=C(O)CN1CCN(CC(=O)O)CCN(CC(=O)*)CCN(CC(=O)O)CC1; 2Nal = N[C@@H](Cc1ccc2ccccc2c1)C(=O)O; Gly(4-THP) = N[C@H](C(=O)O)C1CCOCC1; tBuAla = CC(C)(C)C[C@H](N)C(=O)O; NMeNle = CCCC[C@H](NC)C(=O)O; αMeP = C[C@@]1(C(=O)O)CCCN1
# T1: DLL3 (Homo sapiens, UniProt Q9NYJ7)
# T1 sequence (Q9NYJ7 27-618): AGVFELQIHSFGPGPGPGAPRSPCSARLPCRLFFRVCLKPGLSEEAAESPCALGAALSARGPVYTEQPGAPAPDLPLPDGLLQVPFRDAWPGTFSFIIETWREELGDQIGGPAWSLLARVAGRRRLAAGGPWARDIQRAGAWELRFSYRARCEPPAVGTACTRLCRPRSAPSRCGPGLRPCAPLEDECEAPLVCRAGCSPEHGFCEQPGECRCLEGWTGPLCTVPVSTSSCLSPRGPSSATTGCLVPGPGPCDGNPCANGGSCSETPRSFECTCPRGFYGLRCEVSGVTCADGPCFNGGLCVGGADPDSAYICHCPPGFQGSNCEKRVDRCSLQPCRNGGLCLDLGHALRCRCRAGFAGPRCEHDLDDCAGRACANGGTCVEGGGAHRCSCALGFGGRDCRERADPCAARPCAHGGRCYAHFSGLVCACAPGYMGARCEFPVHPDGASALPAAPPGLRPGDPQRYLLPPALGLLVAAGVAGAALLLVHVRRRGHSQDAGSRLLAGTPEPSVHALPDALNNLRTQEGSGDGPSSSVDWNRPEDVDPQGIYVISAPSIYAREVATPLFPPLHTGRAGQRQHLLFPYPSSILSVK
# T2: DLL3 on SHP-77 cells (human, UniProt Q9NYJ7 27-618)
# T2 construct: SHP-77 cells are human-derived, non-engineered SCLC cells
# T2 sequence: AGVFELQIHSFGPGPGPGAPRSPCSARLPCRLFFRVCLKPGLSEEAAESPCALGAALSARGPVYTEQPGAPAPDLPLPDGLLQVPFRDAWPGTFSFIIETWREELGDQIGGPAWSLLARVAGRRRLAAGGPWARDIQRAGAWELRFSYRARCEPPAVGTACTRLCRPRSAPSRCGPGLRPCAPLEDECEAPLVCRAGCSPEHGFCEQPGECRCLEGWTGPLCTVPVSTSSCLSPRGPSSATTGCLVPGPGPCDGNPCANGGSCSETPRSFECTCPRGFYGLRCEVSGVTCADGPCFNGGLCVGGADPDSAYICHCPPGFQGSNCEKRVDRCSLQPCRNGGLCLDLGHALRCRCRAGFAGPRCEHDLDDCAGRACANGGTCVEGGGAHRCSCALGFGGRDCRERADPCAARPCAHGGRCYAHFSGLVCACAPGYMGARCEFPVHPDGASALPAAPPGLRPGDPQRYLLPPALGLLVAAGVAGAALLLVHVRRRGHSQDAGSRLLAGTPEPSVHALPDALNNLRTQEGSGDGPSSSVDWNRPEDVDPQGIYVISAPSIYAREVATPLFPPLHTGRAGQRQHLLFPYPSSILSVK
# T3: DLL3 on CT26.DLL3 cells (Homo sapiens (Human), UniProt Q9NYJ7 27-618)
# T3 construct: CT26.DLL3 are engineered cells to express DLL3
# T3 sequence: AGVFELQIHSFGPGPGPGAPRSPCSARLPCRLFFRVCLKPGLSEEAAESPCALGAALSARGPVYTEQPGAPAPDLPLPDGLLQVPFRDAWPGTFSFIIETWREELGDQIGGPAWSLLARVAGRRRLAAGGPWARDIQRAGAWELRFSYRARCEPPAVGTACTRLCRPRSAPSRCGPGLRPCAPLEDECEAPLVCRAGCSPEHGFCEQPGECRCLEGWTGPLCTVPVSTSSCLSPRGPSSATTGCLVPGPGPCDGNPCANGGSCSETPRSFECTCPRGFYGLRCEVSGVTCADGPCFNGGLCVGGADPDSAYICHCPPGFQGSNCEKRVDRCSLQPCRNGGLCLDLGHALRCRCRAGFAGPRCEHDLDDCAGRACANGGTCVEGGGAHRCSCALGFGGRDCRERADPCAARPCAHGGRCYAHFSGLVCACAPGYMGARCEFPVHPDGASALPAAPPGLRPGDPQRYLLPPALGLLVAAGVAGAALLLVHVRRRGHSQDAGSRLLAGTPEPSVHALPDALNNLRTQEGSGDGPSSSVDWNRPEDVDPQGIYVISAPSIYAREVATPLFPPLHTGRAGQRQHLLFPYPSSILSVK
# Experiments:
# DLL3 = molecular target: T1, DLL3; test: SPR binding affinity of cyclic peptides (SEQ ID NOs), SA sensor chip, Biacore S200; details: 25° C., 1:1 binding model
# Method: The binding affinity and binding kinetic parameters at 25° C. were determined using Biacore S200 instrument. Target ligand was immobilized on a SA sensor chip via streptavidin capture. A reference surface was set up for nonspecific binding and refractive index changes. For analysis of the kinetics of interactions, varying concentrations of peptides were injected at a flow rate of 50 μL/minute using running buffer containing 20 mM phosphate buffer with 2.7 mM KCl, 137 mM NaCl and 0.05% Surfactant P20. Sensorgram curves were fitted with 1:1 binding model, and affinity and kinetic parameters were obtained using either Biacore S200 evaluation software 1.1.1 or Biacore Insight evaluation 4.0.
# DLL3 on SHP-77 cells = molecular target: T2, DLL3 on SHP-77 cells; test: [177Lu]Lu-labelled peptide on SHP-77 cells, 1 h 37 C, gamma counter; A = %<=25
# Method: (§1) Adherent cell studies: The cells were cultured in appropriate culture media (20 mL) in tissue culture treated T150 flasks at 37° C. and 5% C02. Adherent cells were detached (60-70% confluent) using 5 mL Versene at 37° C. for 3 minutes. After confirming the viability using countess and count of detached cells using Trypan blue, the cells were centrifuged at 4° C. for 5 minutes (1,000 rpm). The cell pellet obtained was washed once with PBS and resuspended in 1% PBSA to obtain the desired cell concentration (5-25 million cells/mL).
# (§2) Total uptake: Cells were incubated with 300 μL (0.8 μCi) of the incubation buffer (containing radiolabeled peptide [¹⁷⁷Lu]Lu-test peptide) for 1 hour at 37° C. (Table 10). Post incubation, the cells were pelleted and washed 2 times using cold PBS+1% BSA. The supernatant and washes were combined and counted together as “unbound fraction” in a gamma counter. The cells were then resuspended in 300 μL of 1% PBS+1% BSA and counted in the gamma counter as “bound fraction”.
# DLL3 on CT26.DLL3 cells = molecular target: T3, DLL3 on CT26.DLL3 cells; test: [177Lu]Lu-labelled peptide on CT26.DLL3 cells, 1 h 37 C, gamma counter; A = %<=25
# Method: as §1, §2
# [1] = molecular target: Recombinant human DLL3 aa27-215 protein (human) (UniProt Q9NYJ7); test: ELISA: anti-DOTA antibody coated on the plate captures the DOTA-containing peptide (titrated 100 nM to 1.69 pM); 2 ug/mL DLL3 aa27-215 (His-tagged) added; detected with anti-His-HRP, OD450; EC50 fitted in GraphPad
Molecule,Kd (DLL3) [nM],% Binding (DLL3 on SHP-77 cells) [%],% Binding (DLL3 on CT26.DLL3 cells) [%],EC50 [1] [nM]
CC[C@H](C)[C@H](NC(=O)[C@@H](NC(=O)[C@H](Cc1c[nH]c2ccccc12)NC(=O)[C@H](CCSC)NC(C)=O)[C@@H](C)O)C(=O)N[C@H]1CSSC[C@@H](C(=O)N[C@@H](Cc2c[nH]c3ccccc23)C(=O)N2CCC[C@H]2C(N)=O)NC(=O)[C@H](CC(=O)O)NC(=O)[C@H](Cc2cnc[nH]2)NC(=O)[C@H](Cc2c[nH]c3ccccc23)NC(=O)[C@H](CC(N)=O)NC(=O)[C@@H](C)NC1=O [compound 82] (Ac-MWTIC[dA]NWHDCWP-NH2; disulfide 5-11),47,,,
Ac-WT[Gly(4-THP)]CNN[2Nal]K(DOTA)DCWP-NH2 (disulfide 4-10; SMILES CC(=O)N[C@@H](Cc1c[nH]c2ccccc12)C(=O)N[C@H](C(=O)N[C@H](C(=O)N[C@H]1CSSC[C@@H](C(=O)N[C@@H](Cc2c[nH]c3ccccc23)C(=O)N2CCC[C@H]2C(N)=O)NC(=O)[C@H](CC(=O)O)NC(=O)[C@H](CCCCNC(=O)CN2CCN(CC(=O)O)CCN(CC(=O)O)CCN(CC(=O)O)CC2)NC(=O)[C@H](Cc2ccc3ccccc3c2)NC(=O)[C@H](CC(N)=O)NC(=O)[C@H](CC(N)=O)NC1=O)C1CCOCC1)[C@@H](C)O) [Cpd No. 317],,≤ 25,≤ 25,
Ac-WT[NMeNle]CNN[2Nal]K(DOTA)DCWP-NH2 (disulfide 4-10) [Cpd No. 320],,≤ 25,≤ 25,

# Continued, values first:
Kd (DLL3) [nM],% Binding (DLL3 on SHP-77 cells) [%],% Binding (DLL3 on CT26.DLL3 cells) [%],EC50 [1] [nM],Molecule
150,,,,CSCC[C@H](NC(C)=O)C(=O)N[C@@H](Cc1c[nH]c2ccccc12)C(=O)N[C@@H](CCSC)C(=O)N[C@@H](CC(C)C)C(=O)N[C@H]1CSSC[C@@H](C(=O)N[C@@H](Cc2c[nH]c3ccccc23)C(=O)N2CCC[C@H]2C(N)=O)NC(=O)[C@H](CC(=O)O)NC(=O)[C@H](CCCCN)NC(=O)[C@H](CC(=O)O)NC(=O)[C@H](Cc2c[nH]c3ccccc23)NC(=O)[C@H](CC(=O)O)NC1=O [compound 77] (Ac-MWMLCDWDKDCWP-NH2; disulfide 5-11)
150,,,,CC[C@H](C)[C@H](NC(=O)[C@@H](NC(=O)[C@H](Cc1c[nH]c2ccccc12)NC(=O)[C@H](CCSC)NC(C)=O)[C@@H](C)O)C(=O)N[C@H]1CSSC[C@@H](C(=O)N[C@@H](Cc2c[nH]c3ccccc23)C(=O)N[C@H](C)C(N)=O)NC(=O)[C@H](CC(=O)O)NC(=O)[C@H](Cc2cnc[nH]2)NC(=O)[C@H](Cc2c[nH]c3ccccc23)NC(=O)[C@H](CC(N)=O)NC(=O)[C@H](CC(N)=O)NC1=O [compound 85] (Ac-MWTICNNWHDCW[dA]-NH2; disulfide 5-11)
,,,2.86,Ac-WT[tBuAla]C[Ala(piperidin-4-yl)]N[2Nal]K(DOTA)DCW[αMeP]-NH2 (bridge 4-10; not fully specified (bridges)) [Cpd No. 437]
,≤ 25,≤ 25,,"Ac-WTICK(DOTA)N[2Nal]HDCWP-NH2 (disulfide 4-10; SMILES CC[C@H](C)[C@H](NC(=O)[C@@H](NC(=O)[C@H](Cc1c[nH]c2ccccc12)NC(C)=O)[C@@H](C)O)C(=O)N[C@H]1CSSC[C@@H](C(=O)N[C@@H](Cc2c[nH]c3ccccc23)C(=O)N2CCC[C@H]2C(N)=O)NC(=O)[C@H](CC(=O)O)NC(=O)[C@H](Cc2c[nH]cn2)NC(=O)[C@H](Cc2ccc3ccccc3c2)NC(=O)[C@H](CC(N)=O)NC(=O)[C@H](CCCCNC(=O)CN2CCN(CC(=O)O)CCN(CC(=O)O)CCN(CC(=O)O)CC2)NC1=O, also called compound 249) [Cpd No. 249]"
